Measured values taken from patent US20040253214A1.

Molecular target: bovine EGF receptor on MDBK cells (bovine) (UniProt F1N7F3)
Assay: cell-based or functional assay

EXGaLVMoT chimeric envelope (EGF displayed through a factor Xa-cleavable linker as an N-terminal extension of the Gibbon Ape Leukaemia virus SU glycoprotein), on retroviral vector particles (from UniProt P01133 971-1023; P21415 43-653; P03385 633-665)
Titre of GaLV vectors on EGF-R positive cells, MDBK, +Xa (displayed EGF domain cleaved with factor Xa before infection): 12 efu/ml
Titre of GaLV vectors on EGF-R positive cells, MDBK, -Xa: < 1 efu/ml
